{
  "source": "patent US20130171644",
  "about": "“COINCIDENCE DETECTION” (KING'S COLLEGE LONDON, published 2013)",
  "key": {"[1]": {"molecular_target": "T1, RAR-DBD-KEK-S-EE", "T1 chain": "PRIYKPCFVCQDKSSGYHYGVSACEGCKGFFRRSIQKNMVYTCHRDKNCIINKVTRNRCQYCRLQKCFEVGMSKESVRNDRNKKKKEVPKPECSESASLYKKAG", "experiment": "ELONA; RAR alone; monomeric RAR does not bind DR5", "conditions": "tags: GST, label: 5'-biotin", "procedure": "(§1) Method: 96-well microtiter plates were coated with a-EE (Y) and a-MYC (Y) at 10 ng/μl in 100 mM NaHCO3/Na2CO3 (pH 9.6). Excess antibody was removed and wells were blocked using 3% BSA. The biodetectors were then captured in the well as indicated in figures followed by the addition of 50 μl/well of biotinylated-DR5 DNA sequence (BIO-DR5, 5 pmol/μl). Control for specificity is the non-consensus oligo (BIO-non consensus) and un-biotinylated DR5 (competitor) to establish signal specificity. Washes were performed at each step to assure the removal of unbound reagents. Streptavidin-HRP was incubated for 30 min at RT, and after three washes, binding was assessed using TMB substrate. Absorbance was measured at 450 nm. Samples are in duplicate.\n(§2) ELISA assays were carried out by coating 500 ng of α-MYC and α-EE antibodies diluted in 100 mM bicarbonate buffer (50 ul/well, pH 9.6). Antibodies were coated for 2 h at RT in a microtiter plate (MaxiSorp, Nunc). The wells were then washed once with 200 ul of PBS buffer (pH 7.3) and incubated 0/N at 4° C. with 200 ul of blocking buffer (PBS+3% BSA). The biodetectors where then added at the concentration of 0.7 pmol/well (50 ul/well in 150 mM NaCl, 50 mM Tris pH 7.6, 10% glycerol and 1% BSA) and incubated for 1 h at RT. […]"}, "[2]": {"molecular_target": "T2, RXR-DBD-EKE-MYC + RAR-DBD-KEK-S-EE heterodimer (UniProt P19793; SEQ:260-356,SEQ:260-363)", "T2 chain 1": "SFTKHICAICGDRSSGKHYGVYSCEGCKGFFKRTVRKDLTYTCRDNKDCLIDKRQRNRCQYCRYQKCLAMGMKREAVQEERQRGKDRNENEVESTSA", "T2 chain 2": "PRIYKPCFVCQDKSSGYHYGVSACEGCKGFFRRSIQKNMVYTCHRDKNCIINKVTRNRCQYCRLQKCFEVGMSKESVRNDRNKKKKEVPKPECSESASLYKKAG", "experiment": "ELONA; antibody-captured detectors, streptavidin-HRP readout, RT", "conditions": "tags: GST, label: 5'-biotin", "procedure": "as §1, §2"}, "[3]": {"molecular_target": "T3, RAR-PLCgNSH2-HA-EE", "T3 chain": "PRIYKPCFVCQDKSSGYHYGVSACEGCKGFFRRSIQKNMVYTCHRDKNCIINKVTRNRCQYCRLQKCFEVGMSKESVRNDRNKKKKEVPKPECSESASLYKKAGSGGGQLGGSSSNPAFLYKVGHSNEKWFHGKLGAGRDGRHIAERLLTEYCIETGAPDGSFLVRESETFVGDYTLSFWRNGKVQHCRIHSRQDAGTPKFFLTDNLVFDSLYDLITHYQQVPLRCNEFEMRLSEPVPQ", "experiment": "ELONA; single reagent alone; combined RXR/RAR required for signal", "conditions": "tags: GST, HA-EE-HIS; label: 5'-biotin", "description": "(§3) Streptavidin was coated for 2 h at RT in a microtiter plate (MaxiSorp, Nunc). The wells were then washed once with 200 ul of 0.8× sodium citrate buffer (0.8×SSC: 120 mM NaCl, 12 mM sodium citrate) and incubated 0/N at 4° C. with 200 μl of blocking buffer (3% BSA in 0.8×SSC). The appropriate biotinylated phospho-peptide/s were then added at the concentration of 1.2 pmol/well in 0.8×SSC with additionally 1% BSA and incubated for 1 h at RT. After washing three times with 0.8×SSC containing 0.1% Tween 20 (0.8×SSC/Tw) a blocking step was carried out using biotin at the concentration of 40 ng/well (160 pmol/well in 0.8×SSC buffer). Biotin was incubated for 10 min at RT. The wells were then washed three times with 200 ul of 0.8×SSC containing 0.1% Tween 20 and the biodetectors were then added at the concentration of 2 pmol/well (50 ul/well in 0.8×SSC buffer, 1% BSA).\n(§4) The biodetectors were incubated for 1 h at RT. After washing three times with 200 ul of 0.8×SSC/Tw, 50 μl of biotinylated-DR5 DNA sequence (Biot-DR5, 5 pmol/well in 0.8×SSC/Tw buffer, 1% BSA) were added to the wells and plates were incubated for 1 h at RT. After washing three times with 0.8×SSC/Tw, each well was incubated with Streptavidin-HRP conjugated diluted 1:3,000 in 0.8×SSC/Tw containing 1% BSA. […] The reaction was stopped by adding 100 ul of 2 M H₂SO₄ and the optical density (O.D.) was read at the wavelength of 450 nm."}, "[4]": {"molecular_target": "RXR-Grb2SH2-MYC", "experiment": "ELONA; single reagent alone; combined RXR/RAR required for signal", "conditions": "tags: GST, MYC-HIS; label: 5'-biotin", "description": "as §3, §4"}, "[5]": {"molecular_target": "T4, RXR-DBD-EKE-MYC (UniProt P19793 SEQ:260-356)", "T4 chain": "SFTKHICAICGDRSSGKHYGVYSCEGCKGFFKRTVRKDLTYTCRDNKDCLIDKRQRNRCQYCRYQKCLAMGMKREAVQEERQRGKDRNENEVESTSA", "experiment": "ELONA; RXR alone; monomeric RXR does not bind DR5", "conditions": "tags: GST, label: 5'-biotin", "procedure": "as §1, §2"}, "[6]": {"molecular_target": "RXR-Grb2SH2-MYC + RAR-PLCgNSH2-HA-EE heterodimer", "experiment": "ELONA; antibody- or bis-phosphopeptide-captured; peptide assay in 0.8xSSC, RT", "conditions": "tags: GST, MYC-HIS (RXR), label: 5'-biotin"}},
  "data": [
    {"binder": "BIO-DR5 (dsDNA) DNA 1: TGGTATCTAGTTATTGCTCAGCGTGCCAGGTCACCGAAAGGTCAGAG DNA 2: CTCTGACCTTTCGGTGACCTGGCACGCTGAGCAATAACTAGATACCA", "values": [
      {"measurement": "binding result", "setting": "[1]", "value": "no binding"},
      {"measurement": "binding result", "setting": "[2]", "value": "binds"},
      {"measurement": "binding result", "setting": "[3]", "value": "no binding"},
      {"measurement": "binding result", "setting": "[4]", "value": "no binding"},
      {"measurement": "binding result", "setting": "[5]", "value": "no binding"},
      {"measurement": "binding result", "setting": "[6]", "value": "binds"}
    ]}
  ]
}
